Results from article PMC2821790.

How the values were obtained:
Sp1 = Sp1 (UniProt P08047 1-785); assay: EMSA
[1] = target: T1, HMGA1(2/3) peptide (AT-hooks DBD2 and DBD3) (UniProt P17096 49-91); assay: EMSA
T1 chain: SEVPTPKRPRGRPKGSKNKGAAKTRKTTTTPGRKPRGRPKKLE

[2] = target: T2, 15N-G11,G20,G37-HMGA1(2/3) peptide (UniProt P17096 49-91); assay: NMR
T2 chain: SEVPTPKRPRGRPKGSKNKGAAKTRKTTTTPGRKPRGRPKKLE

Sp1, sequence (P08047 whole entry): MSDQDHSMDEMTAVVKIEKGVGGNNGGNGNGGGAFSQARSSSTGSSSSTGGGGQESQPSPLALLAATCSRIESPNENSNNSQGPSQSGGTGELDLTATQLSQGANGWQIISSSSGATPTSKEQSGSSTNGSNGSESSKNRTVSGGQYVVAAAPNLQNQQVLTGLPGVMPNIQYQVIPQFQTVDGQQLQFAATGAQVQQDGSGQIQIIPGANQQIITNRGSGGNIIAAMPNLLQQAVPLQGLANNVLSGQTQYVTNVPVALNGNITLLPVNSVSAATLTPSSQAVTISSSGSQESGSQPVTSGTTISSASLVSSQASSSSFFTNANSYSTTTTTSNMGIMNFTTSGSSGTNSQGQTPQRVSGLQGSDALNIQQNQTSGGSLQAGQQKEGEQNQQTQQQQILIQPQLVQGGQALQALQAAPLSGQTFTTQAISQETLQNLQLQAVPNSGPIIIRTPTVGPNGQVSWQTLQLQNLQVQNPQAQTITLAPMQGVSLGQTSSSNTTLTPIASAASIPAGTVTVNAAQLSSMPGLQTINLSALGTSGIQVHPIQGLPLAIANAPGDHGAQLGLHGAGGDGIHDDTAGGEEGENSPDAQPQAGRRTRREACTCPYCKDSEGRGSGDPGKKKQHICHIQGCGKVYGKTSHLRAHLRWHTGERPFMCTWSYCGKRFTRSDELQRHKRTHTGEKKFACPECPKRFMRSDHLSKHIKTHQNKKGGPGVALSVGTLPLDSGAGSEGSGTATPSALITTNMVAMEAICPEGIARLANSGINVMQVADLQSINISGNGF

B1: Sp1 consensus probe (dsDNA)
DNA 1: ATTCGATCGGGGCGGGGCGAGC
DNA 2: GCTCGCCCCGCCCCGATCGAAT
- binding result (Sp1): binds

B2: NOS2 Oct EMSA probe (-65/-50) (dsDNA)
DNA 1: AGTTATGCAAAATAGC
DNA 2: GCTATTTTGCATAACT
- binding result [1]: binds

B3: NOS2 Oct 16-bp DNA (NMR) (dsDNA)
DNA 1: AGTTATGCAAAATAGC
DNA 2: GCTATTTTGCATAACT
- binding result [2]: binds
